Results reported in patent US8008456B2, “Compositions containing, methods involving, and uses of non-natural amino acids and polypeptides” (Ambrx, Inc., priority 2004, dated 2011).
Where two headings read alike, the source gives them in different places.

Experiments:
[1] = Intracellular concentration of non-natural amino acids (cellular uptake); format: in vitro ADME
From the text: Non-natural amino acid uptake by a eukaryotic cell is one issue that is typically considered when designing and selecting non-natural amino acids, including but not limited to, for incorporation into a protein. […] Natural amino acids are taken up into the eukaryotic cell via a collection of protein-based transport systems. A rapid screen can be done which assesses which non-natural amino acids, if any, are taken up by cells (examples 15 & 16 herein illustrate non-limiting examples of tests which can be done on non-natural amino acids). See, e.g., the toxicity assays in, e.g., the U.S. Patent Publication No. 2004/198637 entitled “Protein Arrays,” which is herein incorporated by reference in its entirety, and Liu, D. R. & Schultz, P. G. (1999) Progress toward the evolution of an organism with an expanded genetic code. PNAS United States 96:4780-4785. Although uptake is easily analyzed with various assays, an alternative to designing non-natural amino acids that are amenable to cellular uptake pathways is to provide biosynthetic pathways to create amino acids in vivo.
(§1) This example provides results of four tests that were conducted on certain illustrative non-natural amino acids as an aid for predicting their properties for incorporation into non-natural amino acid polypeptides.

[2] = tested on: aminoacyl-tRNA synthetase (RS); assay: RS test
Experimental: as §1

[3] = Oxime stability pH 4-8; format: physicochemical
Experimental: as §1

[4] = Pharmacokinetic studies, single s.c. dose in rats, plasma growth hormone ELISA; format: in vivo; settings: single-dose 1 mg/kg bolus s.c., normal male Sprague-Dawley rats; average (+/- standard deviation)
Experimental: Pharmacokinetic properties of PEG-modified growth hormone compounds were compared to each other and to nonPEGylated growth hormone in male Sprague-Dawley rats (261-425 g) obtained from Charles River Laboratories. Catheters were surgically installed into the carotid artery for blood collection. Following successful catheter installation, animals were assigned to treatment groups (three to six per group) prior to dosing. Animals were dosed subcutaneously with 1 mg/kg of compound in a dose volume of 0.41-0.55 ml/kg. Blood samples were collected at various time points via the indwelling catheter and into EDTA-coated microfuge tubes. Plasma was collected after centrifugation, and stored at −80° C. until analysis. Compound concentrations were measured using antibody sandwich growth hormone ELISA kits from either BioSource International (Camarillo, Calif.) or Diagnostic Systems Laboratories (Webster, Tex.). Concentrations were calculated using standards corresponding to the analog that was dosed. Pharmacokinetic parameters were estimated using the modeling program WinNonlin (Pharsight, version 4.1). Noncompartmental analysis with linear-up/log-down trapezoidal integration was used, and concentration data was uniformly weighted.
Plasma concentrations were obtained at regular intervals following a single subcutaneous dose in rats. […] Plasma samples were taken over the regular time intervals and assayed for injected compound as described. […] Concentration vs time curves were evaluated by noncompartmental analysis (Pharsight, version 4.1). Values shown are averages (+/−standard deviation). Cmax: maximum concentration; terminal t1/2: terminal half-life; AUC0->inf: area under the concentration-time curve extrapolated to infinity; MRT: mean residence time; Cl/f: apparent total, plasma clearance; Vz/f: apparent volume of distribution during terminal phase.

[5] = Pharmacodynamic studies, bodyweight gain in hypophysectomized rats; format: in vivo, Hypophysectomized male Sprague-Dawley rats; settings: s.c., compared with 30 KPEG-pAF92(his)hGH, p<0.0005
Experimental: Hypophysectomized male Sprague-Dawley rats were obtained from Charles River Laboratories. Pituitaries were surgically removed at 3-4 weeks of age. Animals were allowed to acclimate for a period of three weeks, during which time bodyweight was monitored. Animals with a bodyweight gain of 0-8 g over a period of seven days before the start of the study were included and randomized to treatment groups. Rats were administered either a bolus dose or daily dose subcutaneously. Throughout the study rats were daily and sequentially weighed, anesthetized, bled, and dosed (when applicable). Blood was collected from the orbital sinus using a heparinized capillary tube and placed into an EDTA coated microfuge tube. Plasma was isolated by centrifugation and stored at −80° C. until analysis. The mean (+/−S.D.) plasma concentrations were plotted versus time intervals.
The peptide IGF-1 is a member of the family of somatomedins or insulin-like growth factors. IGF-1 mediates many of the growth-promoting effects of growth hormone. IGF-1 concentrations were measured using a competitive binding enzyme immunoassay kit against the provided rat/mouse IGF-1 standards (Diagnostic Systems Laboratories). Hypophysectomized rats. Rats (n=5-7 per group) were given either a single dose or daily dose subcutaneously. Animals were sequentially weighed, anesthetized, bled, and dosed (when applicable) daily.

Row | Molecule | Intracellular Concentration [1] [µM] | AUC0->inf [4] | Cl/f [4] | Cmax [4] | MRT [4] | Terminal t1/2 [4] | also measured
1 | CC(=O)c1ccc(C[C@H](N)C(=O)O)cc1 | 600 |  |  |  |  |  | RS test [2]: ✓
2 | CC(=O)COc1ccc(C[C@H](N)C(=O)O)cc1 | 1000 to 1800 |  |  |  |  |  | 
3 | CC(C)=NOCOc1ccc(C[C@H](N)C(=O)O)cc1 | 60 |  |  |  |  |  | 
4 | CC(C)=NOCc1ccc(C[C@H](N)C(=O)O)cc1 | 300 |  |  |  |  |  | 
5 | CC(=O)N/N=C/c1ccc(C[C@H](N)C(=O)O)cc1 | 30 |  |  |  |  |  | RS test [2]: ✓
6 | CC(=O)C(=O)Nc1ccc(C[C@H](N)C(=O)O)cc1 | 376 |  |  |  |  |  | 
7 | CC(=O)C(=O)c1ccc(C[C@H](N)C(=O)O)cc1 |  |  |  |  |  |  | Intracellular Concentration ([1]; remark in words): Reduced [M + 2]
8 | CC(=O)CC(=O)c1ccc(C[C@H](N)C(=O)O)cc1 |  |  |  |  |  |  | RS test [2]: Meta- bolized
9 | CC(=O)CNC(=O)c1ccc(C[C@H](N)C(=O)O)cc1 | 628 |  |  |  |  |  | Intracellular Concentration ([1]; remark in words): little reduced
10 | N[C@@H](Cc1ccc2c(c1)NC(=O)C2=O)C(=O)O |  |  |  |  |  |  | Oxime Stability pH 4-8 [3]: − −
11 | CC(=O)C(F)(F)c1ccc(C[C@H](N)C(=O)O)cc1 | 279 |  |  |  |  |  | 
12 | 30KPEG-pAF35(his)hGH: "hGH polypeptides comprising p-acetyl-phenylalanine covalently-linked to 30 kDa PEG at positions 35 and 92" |  | 39,918 (±22,683) ng × hr/ml | 35 (±27) ml/hr/kg | 1,885 (±1,011) ng/ml | 19.16 (±4.00) h | 4.85 (±0.80) h | bodyweight gain at day 9 [5]: greater weight gain
13 | 30KPEG-pAF131(his)hGH: "His-tagged hGH polypeptide comprising non-natural amino acid p-acetyl-phenylalanine covalently linked to 30 kDa PEG at each of six different positions" |  | 6,978 (±2,573) ng × hr/ml | 161 (±61) ml/hr/kg | 497 (±187) ng/ml | 14.28 (±0.92) h | 4.41 (±0.27) h | 
14 | 30KPEG-pAF134(his)hGH: "His-tagged hGH polypeptide comprising non-natural amino acid p-acetyl-phenylalanine covalently linked to 30 kDa PEG at each of six different positions" |  | 7,304 (±2,494) ng × hr/ml | 151 (±63) ml/hr/kg | 566 (±204) ng/ml | 12.15 (±1.03) h | 4.36 (±0.33) h | 
15 | 30KPEG-pAF143(his)hGH: "His-tagged hGH polypeptide comprising non-natural amino acid p-acetyl-phenylalanine covalently linked to 30 kDa PEG at each of six different positions" |  | 17,494 (±3,654) ng × hr/ml | 59 (±11) ml/hr/kg | 803 (±149) ng/ml | 18.83 (±1.59) h | 6.02 (±1.43) h | 
16 | 30KPEG-pAF145(his)hGH: "His-tagged hGH polypeptide comprising non-natural amino acid p-acetyl-phenylalanine covalently linked to 30 kDa PEG at each of six different positions" |  | 13,162 (±6,726) ng × hr/ml | 88 (±29) ml/hr/kg | 634 (±256) ng/ml | 17.82 (±0.56) h | 5.87 (±0.09) h | 
